In patent US20090149339A1 (published 2009):
Ends that are not written are not given here. * marks the point of attachment. Biotin = O=C1N[C@H]2[C@H](CS[C@H]2CCCCC(=O)*)N1

Molecular target: T1, GST-TAX2 PDZ domain fusion protein (human tax interaction protein 2 AA54-140; PDZ domain 1 of 1) (human, UniProt P08515 1-218 = GST)
T1 construct: also called TX 2
Test: A/G assays

T1 sequence (P08515 1-218, tags or fused parts left off): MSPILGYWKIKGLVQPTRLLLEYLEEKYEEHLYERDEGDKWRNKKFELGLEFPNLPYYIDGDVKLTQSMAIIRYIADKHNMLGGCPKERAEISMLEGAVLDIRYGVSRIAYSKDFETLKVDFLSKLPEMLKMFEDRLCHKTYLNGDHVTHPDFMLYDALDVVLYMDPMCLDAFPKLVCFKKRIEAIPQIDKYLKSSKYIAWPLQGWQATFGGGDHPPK

| Binder | binding result |
| --- | --- |
| Biotin-PSWRRSSLSESENATSLTTF [BLR-1 C-terminal PL peptide AA45L, biotinylated] | no binding |
| Biotin-KKGTYLTDETHREVKFTSL [CD46 (form 1) C-terminal PL peptide AA10L, biotinylated] | no binding |

Molecular target: T2, GST-KIAA0316 PDZ domain fusion protein (KIAA0316 AA197-284; PDZ domain 1 of 1) (UniProt P08515 1-218 = GST)
T2 construct: also called K316
T2 sequence (P08515 1-218, tags or fused parts left off): as the sequence (P08515 1-218, tags or fused parts left off) above
Test: A/G assays

| Binder | binding result |
| --- | --- |
| Biotin-PSWRRSSLSESENATSLTTF [BLR-1 C-terminal PL peptide AA45L, biotinylated] | no binding |
| Biotin-KKGTYLTDETHREVKFTSL [CD46 (form 1) C-terminal PL peptide AA10L, biotinylated] | no binding |

Molecular target: T3, GST-MPP2 PDZ domain fusion protein (maguk p55 subfamily member 2 (DLG2) AA185-273; PDZ domain 1 of 1) (UniProt P08515 1-218 = GST)
T3 construct: also called MMP2
T3 sequence (P08515 1-218, tags or fused parts left off): as the sequence (P08515 1-218, tags or fused parts left off) above
Test: A/G assays

| Binder | binding result |
| --- | --- |
| Biotin-PSWRRSSLSESENATSLTTF [BLR-1 C-terminal PL peptide AA45L, biotinylated] | no binding |
| Biotin-KKGTYLTDETHREVKFTSL [CD46 (form 1) C-terminal PL peptide AA10L, biotinylated] | no binding |

Molecular target: T4, GST-TAX33 PDZ domain fusion protein (tax interaction protein 33 AA73-162; PDZ domain 1 of 1) (UniProt P08515 1-218 = GST)
T4 construct: also called TX33
T4 sequence (P08515 1-218, tags or fused parts left off): as the sequence (P08515 1-218, tags or fused parts left off) above
Test: A/G assays

| Binder | binding result |
| --- | --- |
| Biotin-PSWRRSSLSESENATSLTTF [BLR-1 C-terminal PL peptide AA45L, biotinylated] | no binding |
| Biotin-KKGTYLTDETHREVKFTSL [CD46 (form 1) C-terminal PL peptide AA10L, biotinylated] | no binding |

Molecular target: T5, GST-KIAA0559 PDZ domain fusion protein (KIAA0559 AA766-870; PDZ1 of 1) (UniProt P08515 1-218 = GST)
T5 construct: also called K559
T5 sequence (P08515 1-218, tags or fused parts left off): as the sequence (P08515 1-218, tags or fused parts left off) above
Test: A/G assays

| Binder | binding result |
| --- | --- |
| Biotin-PSWRRSSLSESENATSLTTF [BLR-1 C-terminal PL peptide AA45L, biotinylated] | no binding |
| Biotin-KKGTYLTDETHREVKFTSL [CD46 (form 1) C-terminal PL peptide AA10L, biotinylated] | no binding |

Molecular target: GST-LIMK2 PDZ domain fusion protein (human LIM domain kinase 2 AA185-275; PDZ domain 1 of 1) (human, UniProt P08515 1-218 = GST)
Test: A/G assays

| Binder | binding result |
| --- | --- |
| Biotin-PSWRRSSLSESENATSLTTF [BLR-1 C-terminal PL peptide AA45L, biotinylated] | no binding |
| Biotin-KKGTYLTDETHREVKFTSL [CD46 (form 1) C-terminal PL peptide AA10L, biotinylated] | no binding |

Molecular target: T6, GST-SYN1a PDZ domain fusion protein (alpha1-syntrophin AA96-189; PDZ domain 1 of 1) (UniProt P08515 1-218 = GST)
T6 construct: also called SYN 1 alpha; SYNTR 1 alpha
T6 sequence (P08515 1-218, tags or fused parts left off): as the sequence (P08515 1-218, tags or fused parts left off) above
Test: A/G assays

| Binder | binding result |
| --- | --- |
| Biotin-PSWRRSSLSESENATSLTTF [BLR-1 C-terminal PL peptide AA45L, biotinylated] | no binding |
| Biotin-KKGTYLTDETHREVKFTSL [CD46 (form 1) C-terminal PL peptide AA10L, biotinylated] | no binding |

Molecular target: T7, GST-TAX40 PDZ domain fusion protein (human tax interaction protein 40 AA35-137; PDZ domain 1 of 1) (human, UniProt P08515 1-218 = GST)
T7 construct: also called TX 40
T7 sequence (P08515 1-218, tags or fused parts left off): as the sequence (P08515 1-218, tags or fused parts left off) above
Test: A/G assays

| Binder | binding result |
| --- | --- |
| Biotin-PSWRRSSLSESENATSLTTF [BLR-1 C-terminal PL peptide AA45L, biotinylated] | no binding |
| Biotin-KKGTYLTDETHREVKFTSL [CD46 (form 1) C-terminal PL peptide AA10L, biotinylated] | no binding |

Molecular target: GST-LIM PDZ domain fusion protein (Human LIM protein AA29-112; PDZ domain 1 of 1) (human, UniProt P08515 1-218 = GST)
Sequence (P08515 1-218, tags or fused parts left off): as the sequence (P08515 1-218, tags or fused parts left off) above
Test: A/G assays

| Binder | binding result |
| --- | --- |
| Biotin-PSWRRSSLSESENATSLTTF [BLR-1 C-terminal PL peptide AA45L, biotinylated] | no binding |
| Biotin-KKGTYLTDETHREVKFTSL [CD46 (form 1) C-terminal PL peptide AA10L, biotinylated] | no binding |

Molecular target: T8, GST-TAX43 PDZ domain fusion protein (human tax interaction protein 43 AA15-85; PDZ domain 1 of 1) (human, UniProt P08515 1-218 = GST)
T8 construct: also called TX 43
T8 sequence (P08515 1-218, tags or fused parts left off): as the sequence (P08515 1-218, tags or fused parts left off) above
Test: A/G assays

| Binder | binding result |
| --- | --- |
| Biotin-PSWRRSSLSESENATSLTTF [BLR-1 C-terminal PL peptide AA45L, biotinylated] | no binding |
| Biotin-KKGTYLTDETHREVKFTSL [CD46 (form 1) C-terminal PL peptide AA10L, biotinylated] | no binding |

Molecular target: GST-MINT3 PDZ domain fusion protein (human MINT3 AA11-52; PDZ domain 1 of 1) (human, UniProt P08515 1-218 = GST)
Sequence (P08515 1-218, tags or fused parts left off): as the sequence (P08515 1-218, tags or fused parts left off) above
Test: A/G assays

| Binder | binding result |
| --- | --- |
| Biotin-PSWRRSSLSESENATSLTTF [BLR-1 C-terminal PL peptide AA45L, biotinylated] | no binding |
| Biotin-KKGTYLTDETHREVKFTSL [CD46 (form 1) C-terminal PL peptide AA10L, biotinylated] | no binding |

Molecular target: GST-PTN-4 PDZ domain fusion protein (protein-tyrosine phosphatase meg1 AA774-862; PDZ domain 1 of 1) (UniProt P08515 1-218 = GST)
Sequence (P08515 1-218, tags or fused parts left off): as the sequence (P08515 1-218, tags or fused parts left off) above
Test: A/G assays

| Binder | binding result |
| --- | --- |
| Biotin-PSWRRSSLSESENATSLTTF [BLR-1 C-terminal PL peptide AA45L, biotinylated] | no binding |
| Biotin-KKGTYLTDETHREVKFTSL [CD46 (form 1) C-terminal PL peptide AA10L, biotinylated] | no binding |

Molecular target: T9, GST-NeDLG PDZ domain fusion protein (presynaptic protein sao102, neuroendocrine-dlg; PDZ domains 1-2 of 3) (UniProt P08515 1-218 = GST)
T9 construct: also called NeDLG1
T9 sequence (P08515 1-218, tags or fused parts left off): as the sequence (P08515 1-218, tags or fused parts left off) above
Test: A/G assays

| Binder | binding result |
| --- | --- |
| Biotin-PSWRRSSLSESENATSLTTF [BLR-1 C-terminal PL peptide AA45L, biotinylated] | no binding |

Molecular target: T10, GST-CBP PDZ domain fusion protein (Cytohesin binding protein HE AA85-175; PDZ domain 1 of 1) (UniProt P08515 1-218 = GST)
T10 construct: also called Prot
T10 sequence (P08515 1-218, tags or fused parts left off): as the sequence (P08515 1-218, tags or fused parts left off) above
Test: A/G assays

| Binder | binding result |
| --- | --- |
| Biotin-PSWRRSSLSESENATSLTTF [BLR-1 C-terminal PL peptide AA45L, biotinylated] | no binding |
| Biotin-KKGTYLTDETHREVKFTSL [CD46 (form 1) C-terminal PL peptide AA10L, biotinylated] | no binding |

Molecular target: GST-MPP1 PDZ domain fusion protein (55 Kd erythrocyte membrane protein AA101-186; PDZ domain 1 of 1) (UniProt P08515 1-218 = GST)
Sequence (P08515 1-218, tags or fused parts left off): as the sequence (P08515 1-218, tags or fused parts left off) above
Test: A/G assays

| Binder | binding result |
| --- | --- |
| Biotin-PSWRRSSLSESENATSLTTF [BLR-1 C-terminal PL peptide AA45L, biotinylated] | no binding |
| Biotin-KKGTYLTDETHREVKFTSL [CD46 (form 1) C-terminal PL peptide AA10L, biotinylated] | no binding |

Molecular target: T11, GST-PSD95 PDZ domain fusion protein (human post-synaptic density protein 95 AA387-724; PDZ domains 1-3 of 3) (human, UniProt P08515 1-218 = GST)
Test: A/G assays

| Binder | binding result |
| --- | --- |
| Biotin-PSWRRSSLSESENATSLTTF [BLR-1 C-terminal PL peptide AA45L, biotinylated] | no binding |

Molecular target: T12, GST-KIAA0303 PDZ domain fusion protein (KIAA0303 AA652-742; PDZ domain 1 of 1) (UniProt P08515 1-218 = GST)
T12 construct: also called K303
T12 sequence (P08515 1-218, tags or fused parts left off): as the sequence (P08515 1-218, tags or fused parts left off) above
Test: A/G assays

| Binder | binding result |
| --- | --- |
| Biotin-PSWRRSSLSESENATSLTTF [BLR-1 C-terminal PL peptide AA45L, biotinylated] | no binding |
| Biotin-KKGTYLTDETHREVKFTSL [CD46 (form 1) C-terminal PL peptide AA10L, biotinylated] | no binding |

Molecular target: T13, GST-41.8 kD PDZ domain fusion protein (hypothetical 41.8 kD protein AA4-85; PDZ domain 1 of 1) (UniProt P08515 1-218 = GST)
T13 construct: also called hypoth
T13 sequence (P08515 1-218, tags or fused parts left off): as the sequence (P08515 1-218, tags or fused parts left off) above
Test: A/G assays

| Binder | binding result |
| --- | --- |
| Biotin-PSWRRSSLSESENATSLTTF [BLR-1 C-terminal PL peptide AA45L, biotinylated] | no binding |
| Biotin-KKGTYLTDETHREVKFTSL [CD46 (form 1) C-terminal PL peptide AA10L, biotinylated] | no binding |

Molecular target: GST-AF6 PDZ domain fusion protein (af-6 protein AA985-1077; PDZ domain 1 of 1) (UniProt P08515 1-218 = GST)
Sequence (P08515 1-218, tags or fused parts left off): as the sequence (P08515 1-218, tags or fused parts left off) above
Test: A/G assays

| Binder | binding result |
| --- | --- |
| Biotin-PSWRRSSLSESENATSLTTF [BLR-1 C-terminal PL peptide AA45L, biotinylated] | no binding |
| Biotin-KKGTYLTDETHREVKFTSL [CD46 (form 1) C-terminal PL peptide AA10L, biotinylated] | no binding |

Molecular target: GST-DVL1 PDZ domain fusion protein (human dishevelled segment polarity protein homolog AA248-340); PDZ domain … (human, UniProt P08515 1-218 = GST)
Sequence (P08515 1-218, tags or fused parts left off): as the sequence (P08515 1-218, tags or fused parts left off) above
Test: A/G assays

| Binder | binding result |
| --- | --- |
| Biotin-PSWRRSSLSESENATSLTTF [BLR-1 C-terminal PL peptide AA45L, biotinylated] | no binding |
| Biotin-KKGTYLTDETHREVKFTSL [CD46 (form 1) C-terminal PL peptide AA10L, biotinylated] | no binding |

Molecular target: GST-TIAM1 PDZ domain fusion protein (T-lymphoma invasion and metastasis inducing protein 1 AA1001-1088); PDZ 1 … (UniProt P08515 1-218 = GST)
Test: A/G assays

| Binder | binding result |
| --- | --- |
| Biotin-PSWRRSSLSESENATSLTTF [BLR-1 C-terminal PL peptide AA45L, biotinylated] | no binding |
| Biotin-KKGTYLTDETHREVKFTSL [CD46 (form 1) C-terminal PL peptide AA10L, biotinylated] | no binding |

Molecular target: T14, GST-RGS12 PDZ domain fusion protein (human regulator of G-protein signalling 12 AA35-103; PDZ domain 1 of 1) (human, UniProt P08515 1-218 = GST)
T14 construct: also called RSG12
T14 sequence (P08515 1-218, tags or fused parts left off): as the sequence (P08515 1-218, tags or fused parts left off) above
Test: A/G assays

| Binder | binding result |
| --- | --- |
| Biotin-PSWRRSSLSESENATSLTTF [BLR-1 C-terminal PL peptide AA45L, biotinylated] | no binding |
| Biotin-KKGTYLTDETHREVKFTSL [CD46 (form 1) C-terminal PL peptide AA10L, biotinylated] | no binding |

Molecular target: GST-prIL16 PDZ domain fusion protein (putative interleukin 16 precursor AA170-383; PDZ domains 1-2 of 2) (UniProt P08515 1-218 = GST)
Test: A/G assays

| Binder | binding result |
| --- | --- |
| Biotin-PSWRRSSLSESENATSLTTF [BLR-1 C-terminal PL peptide AA45L, biotinylated] | no binding |
| Biotin-KKGTYLTDETHREVKFTSL [CD46 (form 1) C-terminal PL peptide AA10L, biotinylated] | no binding |

Molecular target: T15, GST-CASK PDZ domain fusion protein (CASK AA495-584; PDZ domain 1 of 1) (mouse, UniProt P08515 1-218 = GST)
T15 construct: also called mCASK
T15 sequence (P08515 1-218, tags or fused parts left off): as the sequence (P08515 1-218, tags or fused parts left off) above
Test: A/G assays

| Binder | binding result |
| --- | --- |
| Biotin-PSWRRSSLSESENATSLTTF [BLR-1 C-terminal PL peptide AA45L, biotinylated] | no binding |
| Biotin-KKGTYLTDETHREVKFTSL [CD46 (form 1) C-terminal PL peptide AA10L, biotinylated] | no binding |

Molecular target: GST-NOS1 PDZ domain fusion protein (human neuronal nitric oxide synthase; PDZ domain 1 of 1) (human, UniProt P08515 1-218 = GST)
Sequence (P08515 1-218, tags or fused parts left off): as the sequence (P08515 1-218, tags or fused parts left off) above
Test: A/G assays

| Binder | binding result |
| --- | --- |
| Biotin-PSWRRSSLSESENATSLTTF [BLR-1 C-terminal PL peptide AA45L, biotinylated] | no binding |
| Biotin-KKGTYLTDETHREVKFTSL [CD46 (form 1) C-terminal PL peptide AA10L, biotinylated] | no binding |

Molecular target: T11, GST-PSD95 PDZ domain fusion protein …
Test: A and G assays

| Binder | binding result |
| --- | --- |
| Biotin-KKGTYLTDETHREVKFTSL [CD46 (form 1) C-terminal PL peptide AA10L, biotinylated] | binds |

Molecular target: T9, GST-NeDLG PDZ domain fusion protein …
Test: G assay

| Binder | binding result |
| --- | --- |
| Biotin-KKGTYLTDETHREVKFTSL [CD46 (form 1) C-terminal PL peptide AA10L, biotinylated] | binds |
